Test system: tumor
Settings: mouse, in vivo

PAMAM-e9-xPLGLAG-r9-k(Cy5)
time of maximal contrast after injection: 48 h
